Results taken from the supplement of paper PMC12636428.

System: Saccharomyces cerevisiae
Assay: transcriptional activation domain activity (GFP:mCherry ratio, weighted mean of sorted bins, harmonized to initial dataset scale) (arbitrary fluorescence ratio units); higher = stronger transcriptional activation
Conditions: beta-estradiol 1 µM; induction time 4 h
Outline: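 Each value is an activation activity: the read-weighted mean of bin median fluorescence, averaged across barcodes, then mapped linearly to the initial dataset scale. The tiles, fused to an estradiol-inducible synthetic transcription factor, sat at the yeast URA3 locus in GFP-reporter diploids. Cells spent 4 hours at 30 °C in SC with 1 uM beta-estradiol before sorting into 8 GFP:mCherry bins, and tiles below 50 reads were removed.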

FVWILETLNTGFSAHAIEYFAIYNKGNMMMLWSVPWTISVSNNLLCSTLGLNH
transcriptional activation domain activity: 32200

FVYELWRHGGLGVYSFRLTELLVKVVLEAECKEIMDWWLEKQGYILHDLHRKA
transcriptional activation domain activity: 50300

FVYLILTILPCLDHRCPYRTPMSSIWWYCWHTSLGFFALCARWLLNLLHGILV
transcriptional activation domain activity: 50200

FVYSLCIRYLLAPTPTFQEHGVSPRRSTGIALITLFFIILVIFLLTWMRLIHI
transcriptional activation domain activity: 45100

FWFPNYIFGALSFFSWMSWIAPTNINLANITGSSTGLGLNPFSSFDWNVWTFN
transcriptional activation domain activity: 51400

FWFPNYLFEALTFFSWMTWISPNNLNLEILTGFRNGLGMFNPWPTFDWNVLLF
transcriptional activation domain activity: 51500

FWGLRSLPSSPFICLFLFYCGLVLMHSGLYLGLFLFLLFLSLSVFLFLSHFSV
transcriptional activation domain activity: 30100

FWNLFNLVPGIQAQNLHCRYDYYPWGLSAFCQFLPIANAIGLTGSYTGIIYCC
transcriptional activation domain activity: 33900

FWPWTFWPWIFWTFGLFGLGLFGLGLFGFFGLFGPLDFLDFLDFLALDFLDFL
transcriptional activation domain activity: 37000

FWRYRQNQYAYILSYIVGSETSEERISVMRKNGTYHPAPYQFVYLRVRIANLS
transcriptional activation domain activity: 38700

FWVWMMTSPAFPLKLFIPLFHLTILLIPFTSQFFTPALPITSWLICFFSSKFI
transcriptional activation domain activity: 49200

FYAALYPFKGIFFFIGHPFLYPLARARLIPAFLLSAFVLLNLFFWTYLPQVAF
transcriptional activation domain activity: 34300

FYAMVHWYKIFQSGHSIVRIFLLLIEFLYNLISLVFSWFSLANFYLCYYFLYH
transcriptional activation domain activity: 49600

FYFFFLLSLFSSSSPPLIFLALPLPFSISLTVSNPLAFPVAFFPLFSLSSLLN
transcriptional activation domain activity: 65800

FYFICLFFILYFVFIFMFVFHMFVFYFLCFFLCLIYFLLVYFDICFLSLYLFF
transcriptional activation domain activity: 42600

FYFSWIAQEKYTDAFLLKPLGHYLGTRQLNQENIFIAYYIFVLACHYTFLYVS
transcriptional activation domain activity: 33300

FYGDISLSRRGFLIASMFILRLFRAISYLAFNAILVDMPTRQAILRFFHYFGR
transcriptional activation domain activity: 50200

FYGLYPDNAQTLGSAPKTPTMRLVKAYLKTILSNPESRKIFYFLVLNLSYMMV
transcriptional activation domain activity: 85300

FYGYFNVLKIYLIKYRSSEVFFFFFDFLMYTENEWFITNLFFLLSFILHLGFF
transcriptional activation domain activity: 60200

FYICAILGFKIGIIFAFLRIAVDRTYRISIICVAVICSAFYFCFFVAQLNFCT
transcriptional activation domain activity: 62100

FYLSPVMPLFPPLLKLLREYLSDPLYKDFVSAIYLWVRSVELHHMSTLCIALL
transcriptional activation domain activity: 68900

FYMQLCVNIFLASGFIYILYCAWGAIISDVDIEASKHMSEVLVDIALCAKQYN
transcriptional activation domain activity: 22900

FYPIGRRWQWYWGLWVCACALISLFSNIEVDRYYLQSLPITITIFFWYLMCMG
transcriptional activation domain activity: 28200

FYSRVASSTLLFFWLTSLISNGIIIRTNYLLDQHHSRLLLFALLVVQELLCVL
transcriptional activation domain activity: 68600

FYTLIVEEDQSLWLCLKWCFFDMLFMFGIPLLEIPWLEWSNGAAFLLFVLHAG
transcriptional activation domain activity: 63300

FYWIPIFRAVGKYKYSNLLNKFLLDLHLRYPKKLQNAIRSNWLCNPSGKKNKF
transcriptional activation domain activity: 64100

GAAAASGTKPKPTAAGGAAGAAAASGAKPKPTAAGAAGAAAASGAKPKPTGAA
transcriptional activation domain activity: 15300

GAAASPPPNPDGGKPRKRKGPKEKGGEGNAAARRDAGAGAGAGAARSGSAAAA
transcriptional activation domain activity: 27100

GAAASTPAAPQKPAGGLFGGAGLGAASKPADAAASSSSSGLFGAKPAESAPAA
transcriptional activation domain activity: 30900

GAAATPAKPLGFGATSTATTGGLFGNTGAAPAAGGGLFGATATSHQLLVLVAV
transcriptional activation domain activity: 85800
